# Measured values published in article PMC7641127, “MCL1 binds and negatively regulates the transcriptional function of tumor suppressor p73” (Cell Death & Disease, 2020).
# Experiments:
# recombinant MCL1 (human) [1] = target: recombinant MCL1 (human) (UniProt Q07820); assay: fluorescence polarisation; direct FPA: recombinant MCL1 with FITC-peptide, 30 min, 1× PBS pH 7.4; limit of detection of the probe 5 nM
# recombinant MCL1 (human) [2] = target: recombinant MCL1 (human) (UniProt Q07820); assay: fluorescence polarisation; competitive FPA: 50 nM recombinant MCL1, 10 nM F-BAK, titration of unlabeled p73 peptide or p73DBD, 1× PBS pH 7.4
# [3] = target: recombinant p73 DBD-TD (amino acids 112–398) (human) (UniProt O15350)
# recombinant p73 DBD-TD (amino acids 112–398) (human), sequence (O15350 112-398): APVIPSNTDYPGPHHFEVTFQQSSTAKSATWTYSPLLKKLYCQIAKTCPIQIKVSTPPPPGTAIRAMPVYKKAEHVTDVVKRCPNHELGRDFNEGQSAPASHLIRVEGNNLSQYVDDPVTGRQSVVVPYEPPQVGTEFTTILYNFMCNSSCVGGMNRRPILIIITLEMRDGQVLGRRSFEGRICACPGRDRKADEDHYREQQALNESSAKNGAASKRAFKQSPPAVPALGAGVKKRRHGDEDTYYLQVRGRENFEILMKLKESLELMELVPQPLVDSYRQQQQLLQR
substance,measurement,setting,value
N-terminally labeled FITC-p73_(23mer) peptide,Kd,recombinant MCL1 (human) [1],< 5 nM
"p73_(23mer) peptide (23 amino acids, from the p73 tetramerization domain), unlabeled",IC50,recombinant MCL1 (human) [2],982 nM
recombinant MCL1 (from UniProt Q07820 1-350) (natural protein),"decrease in EMSA: binding of 10 μM p73 (DBD-TD) to 1 μM FITC-GADD45 DNA on titration of recombinant MCL1 (10–200 μM), free probe quantified",[3],27%
